Some results are limits rather than exact numbers.

Among the data in PMC4157346 are EC50 of Ca2+ release, CXCR1-transfected RBL-2H3 cells and Kd values, retold here.

The target of experiment [1] is CXCR1 receptor on stably transfected RBL-2H3 cells (UniProt P25024).
Experiment [2] has the same target. The experiment can be described thus: radioligand binding.
Experiment [3] addresses CXCR2 receptor on stably transfected RBL-2H3 cells (human) (UniProt P25025). Put plainly: radioligand binding.

With CXCL8 G31V mutant (ligand), the EC50 of Ca2+ release, CXCR1-transfected RBL-2H3 cells in experiment [1] stood at 22.9 nM. The same measure, in the same setting: in the case of CXCL8 P32A mutant (ligand) it was 10.7 nM. As usually defined, the Kd is the equilibrium constant for the complex coming apart. A higher Kd goes with a looser complex. Turning to “CXCL8 wild type (from UniProt P10145 21-99) (ligand)”, the EC50 of Ca2+ release, CXCR1-transfected RBL-2H3 cells in experiment [1] amounted to 2.5 nM. Besides, the Kd was 4.1 nM in experiment [2] and 5.4 nM in experiment [3].

For the substance CXCL8 P32G mutant (ligand), the EC50 of Ca2+ release, CXCR1-transfected RBL-2H3 cells in experiment [1] was more than 1000 nM.
